The text below walks through data of publication PMC7261417.

As a reminder, the stoichiometry N is the number of molecules, sites or subunits per partner or assembly.

This assay deals with T1, aquaporin-Z, P60844.
T1 chain: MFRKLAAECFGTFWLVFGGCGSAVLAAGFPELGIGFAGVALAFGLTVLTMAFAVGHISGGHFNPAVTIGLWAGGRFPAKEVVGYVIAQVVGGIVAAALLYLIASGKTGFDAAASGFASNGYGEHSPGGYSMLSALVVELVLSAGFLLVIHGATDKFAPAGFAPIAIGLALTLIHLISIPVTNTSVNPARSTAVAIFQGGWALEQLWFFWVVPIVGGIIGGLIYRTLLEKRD
Nature of the assay: native MS. The following applies: remark: other sources report otherwise.

B1: aquaporin-Z, P60844 1-231 (natural protein)
chain: MFRKLAAECFGTFWLVFGGCGSAVLAAGFPELGIGFAGVALAFGLTVLTMAFAVGHISGGHFNPAVTIGLWAGGRFPAKEVVGYVIAQVVGGIVAAALLYLIASGKTGFDAAASGFASNGYGEHSPGGYSMLSALVVELVLSAGFLLVIHGATDKFAPAGFAPIAIGLALTLIHLISIPVTNTSVNPARSTAVAIFQGGWALEQLWFFWVVPIVGGIIGGLIYRTLLEKRD
modifications: here or on the partner: multiple N-terminal formylation modifications; multiple N-terminal formylation modifications
The molecule B1 gave a stoichiometry N of 4.
